# Assay results taken from PMC9972960.
# Columns and labels:
# [1] = target: purified vaccine protein with HA from influenza A/PR/8/1934 (H1N1), without the C-terminal trimerization domain (influenza A/PR/8/1934 (H1N1)) (UniProt P03452); test: SEC
# [2] = target: purified vaccine protein with HA from influenza A/PR/8/1934 (H1N1), without the C-terminal trimerization domain (influenza A/PR/8/1934 (H1N1)) (UniProt P03452); test: native gel or EMSA
substance,measurement,setting,value
"purified vaccine protein with HA from influenza A/PR/8/1934 (H1N1), without the C-terminal trimerization domain (from UniProt P03452 18-541)",stoichiometry N,[1],3
same,stoichiometry N,[2],3
